The target in test [1] is T1, cynoSIRPα (EGM_02252), Extracellular Domain + His-Tag (cynomolgus monkey).
T1 construct: also called CySIRPα EGM_02252; not shown: His-Tag
T1 chain: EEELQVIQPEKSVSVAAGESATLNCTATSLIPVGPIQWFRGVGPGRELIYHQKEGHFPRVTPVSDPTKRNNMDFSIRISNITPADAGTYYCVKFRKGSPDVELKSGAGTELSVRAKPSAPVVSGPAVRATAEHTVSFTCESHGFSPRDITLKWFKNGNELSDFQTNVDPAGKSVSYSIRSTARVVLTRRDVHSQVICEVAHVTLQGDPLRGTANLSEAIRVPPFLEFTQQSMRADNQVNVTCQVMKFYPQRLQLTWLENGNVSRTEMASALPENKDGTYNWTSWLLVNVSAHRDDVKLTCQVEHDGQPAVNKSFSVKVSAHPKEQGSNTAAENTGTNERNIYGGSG
Briefly: SPR, antibody captured on Protein A/G, ECD-His analyte. As to the method:
The binding kinetics of anti-SIRPα antibodies to various SIRPα analytes are determined by surface plasmon resonance (SPR) using a Biacore 8K+(Cytiva). 1×HBS-EP+(Cytiva) is used as running buffer and for all the dilutions unless stated otherwise. The Series S CM5 sensorchip is activated with a 1:1 mixture of 0.1 M NHS (N-hydroxysuccinimide) and 0.4 M EDC (1-Ethyl-3-(3-dimethylaminopropyl) carbodiimide hydrochloride) for 420 seconds at a flow rate of 10 μl/min and immobilized with Protein A/G (Thermo Scientific, 10 μg/ml in 10 mM acetate pH 4.5) for 420 seconds at a flowrate of 10 μl/min resulting in approximately 3000 RU of Protein A/G on the surface. The sensorchip is then deactivated with 1 M ethanolamine HCl pH 8.5 for 420 seconds at a flowrate of 10 μl/min.
Antibodies (approximately 1 ug/ml) are captured on the Protein A/G surface for 60 seconds at a flowrate of 10 μl/min resulting in capture levels of approximately 240 RU. Dilutions of each SIRP protein (Extracellular Domain+His-Tag, with the concentrations as indicated) are injected as analytes over the captured antibody for 300 seconds of association at a flowrate of 30 μl/min, followed by a dissociation for 600 seconds.
In general terms: Surface plasmon resonance follows binding to a sensor surface in real time, without labels.

Test [2] has as its target T2, cynoSIRPα (XP_015313155), Extracellular Domain + His-Tag (cynomolgus monkey).
T2 construct: also called CySIRPα XP_015313155; not shown: His-Tag
T2 chain: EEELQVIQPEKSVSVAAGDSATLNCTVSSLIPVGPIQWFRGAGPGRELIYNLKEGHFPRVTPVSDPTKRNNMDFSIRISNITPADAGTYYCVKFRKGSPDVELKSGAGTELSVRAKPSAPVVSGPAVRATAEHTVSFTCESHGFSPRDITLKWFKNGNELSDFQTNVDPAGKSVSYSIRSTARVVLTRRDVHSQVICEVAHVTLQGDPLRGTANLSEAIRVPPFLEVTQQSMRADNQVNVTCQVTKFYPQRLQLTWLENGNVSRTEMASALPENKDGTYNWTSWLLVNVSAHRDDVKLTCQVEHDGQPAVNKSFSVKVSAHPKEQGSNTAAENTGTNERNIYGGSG
The test is described as follows: SPR, antibody captured on Protein A/G, ECD-His analyte, 1:1 fit. In short, it runs like this:
(§1)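 Analyte was His-tagged SIRPα extracellular domain in dilution series, associating 300 s and dissociating 600 s at 30 μl/min. Ligand was antibody captured (~240 RU) on immobilized Protein A/G (~3000 RU). Running buffer HBS-EP+.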

Test [3] has as its target T3, cynoSIRPα (NP_001271679), Extracellular Domain + His-Tag (cynomolgus monkey).
T3 construct: also called CySIRPα NP_001271679; not shown: His-Tag
T3 chain: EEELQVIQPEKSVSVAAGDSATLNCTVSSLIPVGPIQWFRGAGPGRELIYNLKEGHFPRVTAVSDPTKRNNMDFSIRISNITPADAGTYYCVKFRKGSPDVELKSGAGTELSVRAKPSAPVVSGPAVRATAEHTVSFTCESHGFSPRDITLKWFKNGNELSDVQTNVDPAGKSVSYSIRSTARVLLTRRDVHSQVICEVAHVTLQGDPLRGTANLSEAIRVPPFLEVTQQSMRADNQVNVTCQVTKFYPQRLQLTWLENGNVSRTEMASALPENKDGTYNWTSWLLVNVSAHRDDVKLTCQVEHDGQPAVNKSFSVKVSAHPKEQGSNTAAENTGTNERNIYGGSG
The test is described as above. In short, it runs like this:
as §1

Test [4] addresses T4, Human SIRPαV2 (CAA71403.1), Extracellular Domain + His-Tag (human, UniProt P78324 31-373).
T4 construct: also called huSIRPαV2; hSIRPαV2; not shown: His-Tag
The test is described as above. Put shortly: as §1

Test [5] has as its target T5, Human SIRPαV1 (NP_542970.1), Extracellular Domain + His-Tag (human, UniProt P78324 31-373).
T5 construct: also called huSIRPαV1; hSIRPαV1; not shown: His-Tag
The test is described as above. In short, it runs like this: as §1

T4 sequence (P78324 other isoform, or with tags, fused parts or gaps): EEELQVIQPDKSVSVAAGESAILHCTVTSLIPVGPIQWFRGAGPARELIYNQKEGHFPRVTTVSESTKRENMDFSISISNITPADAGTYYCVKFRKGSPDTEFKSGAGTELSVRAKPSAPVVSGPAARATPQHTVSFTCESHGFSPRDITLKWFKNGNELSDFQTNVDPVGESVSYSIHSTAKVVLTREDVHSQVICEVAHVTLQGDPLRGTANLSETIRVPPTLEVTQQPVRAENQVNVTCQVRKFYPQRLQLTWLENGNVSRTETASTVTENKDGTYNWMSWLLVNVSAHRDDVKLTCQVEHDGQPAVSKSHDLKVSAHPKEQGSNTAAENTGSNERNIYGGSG
T5 sequence (P78324 other isoform, or with tags, fused parts or gaps): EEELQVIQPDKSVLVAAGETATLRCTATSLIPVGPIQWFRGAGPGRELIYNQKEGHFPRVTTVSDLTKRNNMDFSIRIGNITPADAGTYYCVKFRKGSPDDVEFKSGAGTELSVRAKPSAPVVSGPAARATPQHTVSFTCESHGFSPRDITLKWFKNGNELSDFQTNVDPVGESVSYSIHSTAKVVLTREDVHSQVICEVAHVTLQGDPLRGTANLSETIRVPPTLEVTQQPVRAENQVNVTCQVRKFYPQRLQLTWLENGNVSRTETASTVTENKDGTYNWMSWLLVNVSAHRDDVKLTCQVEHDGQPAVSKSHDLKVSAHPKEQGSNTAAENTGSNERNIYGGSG

B1: Antibody E11 (antibody, human IgG1, kappa, L234A L235A, V domains shown)
VH: QVQLQESGPGLVRPSETLSLTCTVSGGSIRNYYWSWIRQPPGKGLEWMGFIYDNGRTFYNPSLKSRVTISLDMSMNQFSLKMTSVTAADTAVYYCARVRAYSGIGLDGTDVWGQGTTVTVSS
VL: DIVMTQSPLSLPVTPGEPASISCKSSQSLLYSNGYAYLDWYLQRPGQSPQLLIYLGSNRASGVPDRFSGSGSGTDFTLKISRVEAEDVGVYYCMQALQTPLTFGGGTKVEIKR
A word on the Kd: it is the constant that tells how readily two partners part at equilibrium. By koff is commonly meant the first-order rate constant of dissociation. Broadly, the kon is a measure of how fast the partners come together. Consider B1, for which the binding result in test [1] is recorded as “no binding (tested: 1000 nM)”. In addition, the Kd was found to be 0.02 µM in test [2], 0.0203 µM in test [3], 0.00057 µM in test [4] and 0.00141 µM in test [5]. Besides, the koff in test [2] amounted to 0.00549 s⁻¹; in test [3], 0.00542 s⁻¹; in test [4] it was 0.000258 s⁻¹; in test [5], 0.000498 s⁻¹. Also, the kon in test [2] is 275000 M⁻¹ s⁻¹; in test [3], 267000 M⁻¹ s⁻¹; in test [4] it was 453000 M⁻¹ s⁻¹; in test [5] it was 352000 M⁻¹ s⁻¹.

B2: Antibody E14 (antibody, human IgG1, kappa, L234A L235A, V domains shown)
VH: QVQLQESGPGLVRPSETLSLTCTVSGGSIRNYYWSWIRQPPGKGLEWIGFIYYNGRTFYNPSLKSRVTISLDKSKNQFSLKMTSVTAADTAVYYCARVRAYSGIGLDGTDVWGQGTTVTVSS
VL: DIVMTQSPLSLPVTPGEPASISCKSSQSLLYSNAYNYLDWYLQRPGQSPQLLIYLGSNRASGVPDRFSGSGSGTDFTLKISRVEAEDVGVYYCMQALQTPLTFGGGTKVEIKR
As to B2, the binding result in test [1] is recorded as “no binding (tested: 1000 nM)”. The Kd in test [2] came to 0.0863 µM; in test [3], 0.0907 µM; in test [4], 0.00136 µM; in test [5], 0.00184 µM. Also, the koff is 0.0173 s⁻¹ in test [2], 0.0173 s⁻¹ in test [3], 0.000615 s⁻¹ in test [4] and 0.000743 s⁻¹ in test [5]. Moreover, the kon in test [2] was 200000 M⁻¹ s⁻¹; in test [3] it was 190000 M⁻¹ s⁻¹; in test [4], 453000 M⁻¹ s⁻¹; in test [5], 403000 M⁻¹ s⁻¹.

B3: Antibody E17 (antibody, human IgG1, kappa, L234A L235A, V domains shown)
VH: QVQLQESGPGLVRPSETLSLTCTVSGGSIRNYYWSWIRQPPGKGLEWMGFIYDNGRTFYNPSLKSRVTISLDMSMNQFSLKMTSVTAADTAVYYCARVRAYSGIGLDGTDVWGQGTTVTVSS
VL: DIVMTQSPLSLPVTPGEPASISCKSSQSLLYSNAYNYLDWYLQRPGQSPQLLIYLGSNRASGVPDRFSGSGSGTDFTLKISRVEAEDVGVYYCMQALQTPLTFGGGTKVEIKR
In the case of B3, the binding result in test [1] is reported as “no binding (tested: 1000 nM)”. Moreover, the Kd in test [2] is 0.0432 µM; in test [3], 0.0448 µM; in test [4], 0.0008 µM; in test [5], 0.00236 µM. Further, the koff in test [2] was 0.0126 s⁻¹; in test [3] it was 0.0126 s⁻¹; in test [4], 0.000405 s⁻¹; in test [5], 0.000955 s⁻¹. Also, the kon amounted to 292000 M⁻¹ s⁻¹ in test [2], 282000 M⁻¹ s⁻¹ in test [3], 508000 M⁻¹ s⁻¹ in test [4] and 405000 M⁻¹ s⁻¹ in test [5].

B4: Antibody E13 (antibody, human IgG1, kappa, L234A L235A, V domains shown)
VH: QVQLQESGPGLVRPSETLSLTCTVSGGSIRNYYWSWIRQPPGKGLEWIGFIYYTGRTFYNPSLKSRVTISLDMSINQFSLKMTSVTAADTAVYYCARVRAYSGIGLDGTDVWGQGTTVTVSS
VL: DIVMTQSPLSLPVTPGEPASISCKSSQSLLYSNGYAYLDWYLQRPGQSPQLLIYQGSNRASGVPDRFSGSGSGTDFTLKISRVEAEDVGVFYCMQALQTPLTFGGGTKVEIKR
With B4, the binding result in test [1] is recorded as “no binding (tested: 1000 nM)”. For the same molecule, the Kd was found to be 0.0374 µM in test [2], 0.0383 µM in test [3], 0.00069 µM in test [4] and 0.0017 µM in test [5]. Moreover, the koff amounted to 0.00711 s⁻¹ in test [2], 0.00755 s⁻¹ in test [3], 0.000338 s⁻¹ in test [4] and 0.000671 s⁻¹ in test [5]. The kon in test [2] stood at 190000 M⁻¹ s⁻¹; in test [3], 197000 M⁻¹ s⁻¹; in test [4], 490000 M⁻¹ s⁻¹; in test [5] it was 394000 M⁻¹ s⁻¹.

B5: Antibody E16 (antibody, human IgG1, kappa, L234A L235A, V domains shown)
VH: QVQLQESGPGLVRPSETLSLTCTVSGGSIRNYYWSWIRQPPGKGLEWIGFIYYNGRTFYNPSLKSRVTISLDTSKNQFSLKMTSVTAADTAVYYCARVRAYSGIGLDGTDVWGQGTTVTVSS
VL: DIVMTQSPLSLPVTPGEPASISCKSSQSLLYSNAYNYLDWYLQRPGQSPQLLIYLGSNRASGVPDRFSGSGSGTDFTLKISRVEAEDVGVYYCMQALQTPLTFGGGTKVEIKR
As for B5, the binding result in test [1] is “no binding (tested: 1000 nM)”. Also, the Kd was determined as 0.0488 µM in test [2], 0.05 µM in test [3], 0.00193 µM in test [4] and 0.00215 µM in test [5]. Further, the koff came to 0.0147 s⁻¹ in test [2], 0.0158 s⁻¹ in test [3], 0.00105 s⁻¹ in test [4] and 0.00106 s⁻¹ in test [5]. For the same molecule, the kon is 300000 M⁻¹ s⁻¹ in test [2], 313000 M⁻¹ s⁻¹ in test [3], 547000 M⁻¹ s⁻¹ in test [4] and 490000 M⁻¹ s⁻¹ in test [5].

B6: Antibody E15 (antibody, human IgG1, kappa, L234A L235A, V domains shown)
VH: QVQLQESGPGLVRPSETLSLTCTVSGGSIRNYYWSWIRQPPGKGLEWIGFIYYTGRTFYNPSLKSRVTISLDMSINQFSLKMTSVTAADTAVYYCARVRAYSGIGLDGTDVWGQGTTVTVSS
VL: DIVMTQSPLSLPVTPGEPASISCKSSQSLLYSNGYAYLDWYLQRPGQSPQLLIYLGSNRASGVPDRFSGSGSGTDFTLKISRVEAEDVGVYYCMQALQTPLTFGGGTKVEIKR
B6: the binding result in test [1] is on record as “no binding (tested: 1000 nM)”. Besides, the Kd worked out at 0.0462 µM in test [2], 0.0494 µM in test [3], 0.00074 µM in test [4] and 0.00191 µM in test [5]. Further, the koff was 0.0113 s⁻¹ in test [2], 0.012 s⁻¹ in test [3], 0.000369 s⁻¹ in test [4] and 0.000802 s⁻¹ in test [5]. In addition, the kon in test [2] amounted to 245000 M⁻¹ s⁻¹; in test [3], 243000 M⁻¹ s⁻¹; in test [4], 501000 M⁻¹ s⁻¹; in test [5], 421000 M⁻¹ s⁻¹.

B7: Antibody E12 (antibody, human IgG1, kappa, L234A L235A, V domains shown)
VH: QVQLQESGPGLVRPSETLSLTCTVSGGSIRNYYWSWIRQPPGKGLEWIGFIYYNGRTFYNPSLKSRVTISLDMSKNQFSLKMTSVTAADTAVYYCARVRAYSGIGLDGTDVWGQGTTVTVSS
VL: DIVMTQSPLSLPVTPGEPASISCKSSQSLLYSNAYNYLDWYLQRPGQSPQLLIYLGSNRASGVPDRFSGSGSGTDFTLKISRVEAEDVGVYYCMQALQTPLTFGGGTKVEIKR
In the case of B7, the binding result in test [1] was “no binding (tested: 1000 nM)”. The Kd was determined as 0.0422 µM in test [2], 0.0461 µM in test [3], 0.00126 µM in test [4] and 0.00167 µM in test [5]. Moreover, the koff stood at 0.0125 s⁻¹ in test [2], 0.0129 s⁻¹ in test [3], 0.000709 s⁻¹ in test [4] and 0.000819 s⁻¹ in test [5]. For the same molecule, the kon in test [2] is 297000 M⁻¹ s⁻¹; in test [3] it was 279000 M⁻¹ s⁻¹; in test [4] it was 562000 M⁻¹ s⁻¹; in test [5], 490000 M⁻¹ s⁻¹.
